From paper PMC9022034

Biological target: T1, CBM3a (family IIIa carbohydrate binding module) of the cellulosomal scaffolding protein CipC (Clostridium cellulolyticum (Ruminiclostridium cellulolyticum) H10)
T1 chain: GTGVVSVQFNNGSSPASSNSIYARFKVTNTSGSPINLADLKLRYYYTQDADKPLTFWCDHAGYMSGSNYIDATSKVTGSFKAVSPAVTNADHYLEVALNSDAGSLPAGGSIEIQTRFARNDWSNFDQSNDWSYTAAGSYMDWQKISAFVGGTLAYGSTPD
Experiment: ITC
Settings: domain or fragment; C-terminal His6 tag omitted. Limits not printed and no X2 feature in the entry: estimated from the CipC module order (CBM3a-X2-Coh1..7-X2-Coh8) and the ~95-aa X2 size (1EHX is the X2-N homologue). Both edges are uncertain by about 10 residues; the segment should contain the NGNT motif. Methods sometimes call this protein X2-N, but Results state X2-C was used in vitro. / C-terminal His6 tag omitted; modification not given

B1: X2-C module of the cellulosomal scaffolding protein CipC (protein)
chain: VGDVTPVNPTITPSTASFDKYVPANVNVTLTPNGNTFKGITGLTSGTDFTVSNNVVTISKSYLSTLAVGSKTLTFDFGVTNNPVLTLTITDSTPVV
Ka: 80200 M⁻¹
